Key:
HeLa Kyoto [1] = test: solubility change mitosis vs G1/S (difference of NP-40 vs SDS log2 ratios) (log2 ratio difference); higher = more soluble in mitosis
HeLa Kyoto [2] = test: thermal stability score vs G1/S (z-score of summed log2 fold changes over temperatures); higher = more thermally stable than in G1/S
HeLa Kyoto [3] = test: melting temperature (median over replicates), in situ; higher = more thermally stable
HeLa Kyoto [4] = test: solubility in G1/S (NP-40 vs SDS abundance) (log2 ratio); higher = more soluble; details: cell cycle stage: G1/S
[5] = cell cycle stage: early G1 (4.5 h after nocodazole release)
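For melting temperature (median over replicates), in situ in this document: HeLa Kyoto cells synchronized by double thymidine or nocodazole block, proteins quantified by TMT10plex mass spectrometry, three independent biological replicates.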
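For solubility change mitosis vs G1/S (difference of NP-40 vs SDS log2 ratios) in this document: synchronized HeLa Kyoto cells (double thymidine block for G1/S, nocodazole release for mitosis), protein amounts in NP-40 versus SDS lysates quantified by mass spectrometry, three biological replicates.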
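For solubility in G1/S (NP-40 vs SDS abundance) in this document: HeLa Kyoto cells arrested at G1/S by double thymidine block, proteins quantified by TMT10plex mass spectrometry in mild NP-40 versus SDS extracts, three biological replicates.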
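For thermal stability score vs G1/S (z-score of summed log2 fold changes over temperatures) in this document: synchronized HeLa Kyoto cells, proteins quantified by TMT10plex mass spectrometry, three biological replicates, mitosis taken 0.5 h after nocodazole release, G1/S directly after double thymidine block.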

MAPDSDPFPEGPLLKLLPLDARDRGTQRCRLGPAALHALGARLGSAVKISLPDGGSCLCTAWPRRDGADGFVQLDPLCASPGAAVGASRSRRSLSLNRLLLVPCPPLRRVAVWPVLRERAGAPGARNTAAVLEAAQELLRNRPISLGHVVVAPPGAPGLVAALHIVGGTPSPDPAGLVTPRTRVSLGGEPPSEAQPQPEVPLGGLSEAADSLRELLRLPLRYPRALTALGLAVPRGVLLAGPPGVGKTQLVRAVAREAGAELLAVSAPALQGSRPGETEENVRRVFQRARELASRGPSLLFLDEMDALCPQRGSRAPESRVVAQVLTLLDGASGDREVVVVGATNRPDALDPALRRPGRFDREVVIGTPTLKQRKEILQVITSKMPISSHVDLGLLAEMTVGYVGADLTALCREAAMHALLHSEKNQDNPVIDEIDFLEAFKNIQPSSFRSVIGLMDIKPVDWEEIGGLEDVKLKLKQSIEWPLKFPWEFVRMGLTQPKGVLLYGPPGCAKTTLVRALATSCHCSFVSVSGADLFSPFVGDSEKVLSQIFRQARASTPAILFLDEIDSILGARSASKTGCDVQERVLSVLLNELDGVGLKTIERRGSKSSQQEFQEVFNRSVMIIAATNRPDVLDTALLRPGRLDKIIYIPPPDHKGRLSILKVCTKTMPIGPDVSLENLAAETCFFSGADLRNLCTEAALLALQENGLDATTVKQEHFLKSLKTVKPSLSCKDLALYENLFKKEGFSNVEGI [SPATA5L1]
solubility change mitosis (log2) (HeLa Kyoto [1]): 0.095
thermal stability score (HeLa Kyoto [2]; [5]): -0.664
thermal stability score (HeLa Kyoto [2]; cell cycle stage: mitosis): -2.04
melting temperature (HeLa Kyoto [3]; cell cycle stage: G1/S): 52.8 °C
melting temperature (HeLa Kyoto [3]; cell cycle stage: mitosis): 51.2 °C
solubility in G1/S (log2) (HeLa Kyoto [4]): -0.0544

MEPGRRGAAALLALLCVACALRAGRAQYERYSFRSFPRDELMPLESAYRHALDKYSGEHWAESVGYLEISLRLHRLLRDSEAFCHRNCSAAPQPEPAAGLASYPELRLFGGLLRRAHCLKRCKQGLPAFRQSQPSREVLADFQRREPYKFLQFAYFKANNLPKAIAAAHTFLLKHPDDEMMKRNMAYYKSLPGAEDYIKDLETKSYESLFIRAVRAYNGENWRTSITDMELALPDFFKAFYECLAACEGSREIKDFKDFYLSIADHYVEVLECKIQCEENLTPVIGGYPVEKFVATMYHYLQFAYYKLNDLKNAAPCAVSYLLFDQNDKVMQQNLVYYQYHRDTWGLSDEHFQPRPEAVQFFNVTTLQKELYDFAKENIMDDDEGEVVEYVDDLLELEETS [CRTAP]
solubility change mitosis (log2) (HeLa Kyoto [1]): -0.0925
thermal stability score (HeLa Kyoto [2]; [5]): 3.61
thermal stability score (HeLa Kyoto [2]; cell cycle stage: mitosis): 4.97
melting temperature (HeLa Kyoto [3]; cell cycle stage: G1/S): 53.3 °C
melting temperature (HeLa Kyoto [3]; cell cycle stage: mitosis): 54.8 °C
solubility in G1/S (log2) (HeLa Kyoto [4]): 0.35

MDDPDCDSTWEEDEEDAEDAEDEDCEDGEAAGARDADAGDEDEESEEPRAARPSSFQSRMTGSRNWRATRDMCRYRHNYPDLVERDCNGDTPNLSFYRNEIRFLPNGCFIEDILQNWTDNYDLLEDNHSYIQWLFPLREPGVNWHAKPLTLREVEVFKSSQEIQERLVRAYELMLGFYGIRLEDRGTGTVGRAQNYQKRFQNLNWRSHNNLRITRILKSLGELGLEHFQAPLVRFFLEETLVRRELPGVRQSALDYFMFAVRCRHQRRQLVHFAWEHFRPRCKFVWGPQDKLRRFKPSSLPHPLEGSRKVEEEGSPGDPDHEASTQGRTCGPEHSKGGGRVDEGPQPRSVEPQDAGPLERSQGDEAGGHGEDRPEPLSPKESKKRKLELSRREQPPTEPGPQSASEVEKIALNLEGCALSQGSLRTGTQEVGGQDPGEAVQPCRQPLGARVADKVRKRRKVDEGAGDSAAVASGGAQTLALAGSPAPSGHPKAGHSENGVEEDTEGRTGPKEGTPGSPSETPGPSPAGPAGDEPAESPSETPGPRPAGPAGDEPAESPSETPGPRPAGPAGDEPAESPSETPGPSPAGPTRDEPAESPSETPGPRPAGPAGDEPAESPSETPGPRPAGPAGDEPAESPSETPGPSPAGPTRDEPAKAGEAAELQDAEVESSAKSGKP [OGFR]
solubility change mitosis (log2) (HeLa Kyoto [1]): -0.0617
thermal stability score (HeLa Kyoto [2]; [5]): 1.46
thermal stability score (HeLa Kyoto [2]; cell cycle stage: mitosis): 3.46
melting temperature (HeLa Kyoto [3]; cell cycle stage: G1/S): 48.1 °C
melting temperature (HeLa Kyoto [3]; cell cycle stage: mitosis): 49.6 °C
solubility in G1/S (log2) (HeLa Kyoto [4]): 0.423

MLLLTRSPTAWHRLSQLKPRVLPGTLGGQALHLRSWLLSRQGPAETGGQGQPQGPGLRTRLLITGLFGAGLGGAWLALRAEKERLQQQKRTEALRQAAVGQGDFHLLDHRGRARCKADFRGQWVLMYFGFTHCPDICPDELEKLVQVVRQLEAEPGLPPVQPVFITVDPERDDVEAMARYVQDFHPRLLGLTGSTKQVAQASHSYRVYYNAGPKDEDQDYIVDHSIAIYLLNPDGLFTDYYGRSRSAEQISDSVRRHMAAFRSVLS [SCO2]
solubility change mitosis (log2) (HeLa Kyoto [1]): -0.127
thermal stability score (HeLa Kyoto [2]; [5]): 1.37
thermal stability score (HeLa Kyoto [2]; cell cycle stage: mitosis): 1.52
melting temperature (HeLa Kyoto [3]; cell cycle stage: G1/S): 50.5 °C
melting temperature (HeLa Kyoto [3]; cell cycle stage: mitosis): 51.5 °C
solubility in G1/S (log2) (HeLa Kyoto [4]): 0.334

MAKVSELYDVTWEEMRDKMRKWREENSRNSEQIVEVGEELINEYASKLGDDIWIIYEQVMIAALDYGRDDLALFCLQELRRQFPGSHRVKRLTGMRFEAMERYDDAIQLYDRILQEDPTNTAARKRKIAIRKAQGKNVEAIRELNEYLEQFVGDQEAWHELAELYINEHDYAKAAFCLEELMMTNPHNHLYCQQYAEVKYTQGGLENLELSRKYFAQALKLNNRNMRALFGLYMSASHIASNPKASAKTKKDNMKYASWAASQINRAYQFAGRSKKETKYSLKAVEDMLETLQITQS [EMC2]
solubility change mitosis (log2) (HeLa Kyoto [1]): 0.0699
thermal stability score (HeLa Kyoto [2]; [5]): -1.21
thermal stability score (HeLa Kyoto [2]; cell cycle stage: mitosis): -1.88
melting temperature (HeLa Kyoto [3]; cell cycle stage: G1/S): 53.8 °C
melting temperature (HeLa Kyoto [3]; cell cycle stage: mitosis): 53.9 °C
solubility in G1/S (log2) (HeLa Kyoto [4]): 0.188

MLYFSLFWAARPLQRCGQLVRMAIRAQHSNAAQTQTGEANRGWTGQESLSDSDPEMWELLQREKDRQCRGLELIASENFCSRAALEALGSCLNNKYSEGYPGKRYYGGAEVVDEIELLCQRRALEAFDLDPAQWGVNVQPYSGSPANLAVYTALLQPHDRIMGLDLPDGGHLTHGYMSDVKRISATSIFFESMPYKLNPKTGLIDYNQLALTARLFRPRLIIAGTSAYARLIDYARMREVCDEVKAHLLADMAHISGLVAAKVIPSPFKHADIVTTTTHKTLRGARSGLIFYRKGVKAVDPKTGREIPYTFEDRINFAVFPSLQGGPHNHAIAAVAVALKQACTPMFREYSLQVLKNARAMADALLERGYSLVSGGTDNHLVLVDLRPKGLDGARAERVLELVSITANKNTCPGDRSAITPGGLRLGAPALTSRQFREDDFRRVVDFIDEGVNIGLEVKSKTAKLQDFKSFLLKDSETSQRLANLRQRVEQFARAFPMPGFDEH [SHMT2]
solubility change mitosis (log2) (HeLa Kyoto [1]): -0.0179
thermal stability score (HeLa Kyoto [2]; [5]): 0.0206
thermal stability score (HeLa Kyoto [2]; cell cycle stage: mitosis): 0.314
melting temperature (HeLa Kyoto [3]; cell cycle stage: G1/S): 56.7 °C
melting temperature (HeLa Kyoto [3]; cell cycle stage: mitosis): 56.8 °C
solubility in G1/S (log2) (HeLa Kyoto [4]): 0.416

Source: the supplement of paper PMC5998384
